Changes are numbered by the printed parent chain.
Tests used:
[1] = target: T1, human CCL2 (MCP1) - wild type (wt) (human, UniProt P13500 24-99); test: cell-based or functional assay
[2] = target: T1, human CCL2 (MCP1) - wild type (wt); test: SPR T200, 37 C, antibody captured, 1:1 model
Experimental: (§1) Antibody clone supernatants were diluted 1:2 in system buffer and were captured for 1 min at 5 μl/min. […] Analyte kinetics were performed at 30 μl/min. As analyte in solution wt human CCL2 or monomeric CCL2 P8A variant CCL2 were used. Analytes were injected at 90 nM highest concentration. The analyte contact time was 3 min and the dissociation time was 10 min. The Biaevaluation software V.3.0 was used according to the instructions of the manufacturer GEHC. A 1:1 binding model with RMAX local was applied to apparently estimate kinetic rates.

[3] = target: T2, human CCL2 (MCP1) - P8A variant (human, UniProt P13500 24-99); test: SPR T200, 37 C, antibody captured, 1:1 model
T2 construct: In-house point mutant that cannot dimerise; also called monomeric human CCL2; monomeric CCL2
Experimental: as §1

[4] = target: T3, human CCL8 (MCP2) - wild type (wt) (human, UniProt P80075 24-99); test: SPR (Biacore T200), 25 °C, ACES pH 7.4; antibody captured on anti-human IgG (Fc), chemokine injected at 5 nM and 20 nM
T3 construct: also called huCCL8
T3 sequence: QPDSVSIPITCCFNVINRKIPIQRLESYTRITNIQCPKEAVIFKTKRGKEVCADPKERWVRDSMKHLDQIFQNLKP
Experimental: (§2) Biacore assay method: The binding of anti-CCL2 antibodies to the CCL homologs e.g. CCL2 (MCP-1), CCL8 (MCP-2), CCL7 (MCP-3), and CCL13 (MCP-4) were assessed at 25° C. using Biacore T200 instrument (GE Healthcare). Mouse anti-human IgG (Fc) (GE Healthcare) was immobilized on each flow cells of a CM4 sensor chip using amine coupling kit (GE Healthcare) according to the recommended settings by the manufacturer. Antibodies and analytes were diluted into ACES pH 7.4 buffer (20 mM ACES, 150 mM NaCl, 1 mg/ml BSA, 0.05% Tween 20, 0.005% NaN3). Antibodies were captured onto the anti-Fc sensor surfaces, then recombinant human CCL homologs proteins was injected over the flow cell at 5 nM and 20 nM. […] Sensor surface was regenerated each cycle with 3M MgCl2. Binding sensorgram was processed using Biacore T200 Evaluation software, version 2.0 (GE Healthcare).

[5] = target: T4, human CCL7 (MCP3) - wild type (wt) (human, UniProt P80098 24-99); test: as above
T4 construct: Bought from R&D Systems for the homolog assay
Experimental: as §2

[6] = target: T2, human CCL2 (MCP1) - P8A variant; test: number printed over the column of sensorgrams; the assay and the CCL2 form behind the number are not stated on the sheet (the sensorgrams are on monomeric CCL2)
[7] = target: T2, human CCL2 (MCP1) - P8A variant; test: number printed beside the row of sensorgrams; the assay and the CCL2 form behind the number are not stated on the sheet (the sensorgrams are on monomeric CCL2)

B1: 1G9 (antibody, IgG1, V domains shown)
VH: QSLEESGGDLVKPGASLTLTCKASGIDFSLYSYMCWVRQAPGKGLEWIACVDAGASGSTYYASWAKGRFTISKTSSTTVTLQMTSLTAADTATYFCARGILYYTWPYPAGAIDAFDSWGPGTLVTVSS
VL: AYDMTQTPASVSEPVGGTVTIKCQASESISNYLSWYQQKPGQPPKLLIYKASTLASGVPSRFKGSGSGTEYTVTISGVQSDDAATYYCQQSYSSSNVFNTFGGGTEVVVK
notes: also called CCL2-0010
THP1 chemotaxis [fold change compared to IgG control] [1]: 0.9 fold | Kd [2]: 0.062 nM | T1/2 [2]: 2.95 h | Kd [3]: 0.051 nM | T1/2 [3]: 3.63 h | binding result [4]: binds | binding result [5]: no binding (tested: 20 nM)

B2: 11K2H1510/11K2L1338 (antibody, V domains shown)
VH: QVQLVQSGAEVKKPGSSVKVSCKASGLTISHTYMHWVRQAPGQGLEWMGRIDPDNHNTKFDPKFQGRVTITADTSTSTAYMELSSLRSEDTAVYYCARGVFGFFEHWGQGTTVTVSS
VL: DIQMTQSPSSLSASVGDRVTITCKAFEDIYNRRAWYQQKPGKAPKLLIHGATSLEHGVPSRFSGSGSGTDYTLTISSLQPEDFATYYCQQFWSAPYTFGGGTKVEIK
notes: also called modified 11K2 variant (VH H1510 / VL L1338)
Affinity relative to parent 11K2 [6]: < 0.01

B3: 11K2H1514/11K2L1338 (antibody, V domains shown)
VH: B2 VH with D54E
VL: B2 VL
notes: also called modified 11K2 variant (VH H1514 / VL L1338)
Affinity relative to parent 11K2 [6]: 0.02

B4: CNTO888H0625/CNTO888L0616 (antibody, V domains shown)
VH: QVQLVQSGAEVKKPGSSVKVSCKASGGTFSHYGISWVRQAPGQGLEWMGGIIHIFHTANYAQKFQGRVTITADESTSTAYMELSSLRSEDTAVYYCARYDAHYGELDFWGQGTLVTVSS
VL: EIVLTQSPATLSLSPGERATLSCRASQHVSDAYLAWYQQKPGQAPRLLIYDASDRAEGVPARFSGSGSGTDFTLTISSLEPEDFAVYYCHQYIHLHSFTFGQGTKVEIK
notes: also called modified CNTO888 variant (VH H0625 / VL L0616)
Affinity relative to parent CNTO888 [7]: 3 X

B5: CNTO888H0635/CNTO888L0616 (antibody, V domains shown)
VH: B4 VH with I51H, H56G
VL: B4 VL
notes: also called modified CNTO888 variant (VH H0635 / VL L0616)
Affinity relative to parent CNTO888 [7]: 3 X

B6: CNTO888H0634/CNTO888L0616 (antibody, V domains shown)
VH: B4 VH with I34T, H56G
VL: B4 VL
notes: also called modified CNTO888 variant (VH H0634 / VL L0616)
Affinity relative to parent CNTO888 [7]: 10 X

B7: CNTO888 (antibody, V domains shown)
VH: B4 VH with H31S, H53P, H56G, A101G, H102I
VL: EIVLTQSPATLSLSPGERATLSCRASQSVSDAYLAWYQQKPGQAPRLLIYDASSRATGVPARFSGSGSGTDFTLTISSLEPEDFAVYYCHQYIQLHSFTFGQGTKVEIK
notes: IgG1 wild type with kappa light chain; also called CCL2-0004; CNTO888-IgG1
binding result [5]: no binding (tested: 20 nM)

B8: CNTO888H0695/CNTO888L0616 (antibody, V domains shown)
VH: B4 VH with I51V, H53P
VL: B4 VL
notes: also called modified CNTO888 variant (VH H0695 / VL L0616)
Affinity relative to parent CNTO888 [7]: 1 X

B9: 1A5 (antibody, IgG1, V domains shown)
VH: QEQLVESGGDLVKPEGSLTLTCTASGFSFSTSYWMCWVRQAPGKGLELIACISSSIGVTYYASWAEGRFTISKTSSTTVTLQMTSLTVADTATYFCARTTDDNWNVGFNLWGPGTLVTVSS
VL: AYDMTQTPASVEVGVGGTVTIKCQASQSIGNRYLSWYQQKPGQPPKLLIYGTSTLASGVSSRFKGSGSGTQFTLTISGVESADSATYYCQQGATISYLDNAFGGGTEVVVK
notes: also called CCL2-0009
THP1 chemotaxis [fold change compared to IgG control] [1]: 3.6 fold | Kd [2]: 0.024 nM | T1/2 [2]: 2.67 h | Kd [3]: 0.046 nM | T1/2 [3]: 2.28 h | binding result [4]: no binding (tested: 20 nM) | binding result [5]: binds

From US20240360208A1 (Hoffmann-La Roche, published 2024)
